From patent CN110964118A (UNIV CHINA PHARMA, dated 2020)

Assays:
[1] = molecular target: T1, CD24裸肽 (CD24 naked peptide, SPR analyte) (human, UniProt P25063 27-59, limits assumed); assay: SPR (Biacore X100), cG7-sTGFBR2 captured by anti-human IgG(Fc) on a CM5 chip, CD24 naked peptide as analyte, 25℃
T1 construct: also called 抗原CD24
T1 peptide (looked up): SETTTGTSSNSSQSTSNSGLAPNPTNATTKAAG

转化生长因子-β1 (TGF-β1) = 转化生长因子-β1 (TGF-β1) (human, UniProt P01137 279-390); assay: SPR (Biacore X100), cG7-sTGFBR2 captured by anti-human IgG(Fc) on a CM5 chip, TGF-β1 as analyte, 25℃
转化生长因子-β1 (TGF-β1), sequence (P01137 279-390 limits assumed): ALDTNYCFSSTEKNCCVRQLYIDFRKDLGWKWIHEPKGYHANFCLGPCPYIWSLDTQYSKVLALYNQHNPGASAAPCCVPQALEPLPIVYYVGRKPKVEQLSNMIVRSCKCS

Kd [1]: 0.122 nM
koff [1]: 1.14e-05 s⁻¹
kon [1]: 93700 M⁻¹ s⁻¹
Kd (转化生长因子-β1 (TGF-β1)): 55.5 nM
koff (转化生长因子-β1 (TGF-β1)): 0.0636 s⁻¹
kon (转化生长因子-β1 (TGF-β1)): 1.15e+06 M⁻¹ s⁻¹
B1: 靶向CD24的双特异性融合抗体cG7-sTGFBR2 (anti-CD24 humanized chimeric antibody cG7 fused at the heavy chain C-terminus via Gly4Ser to the human TGFBR2 extracellular domain … (bispecific antibody, human IgG1, kappa)
heavy: not shown
light: DIVMTQTPLSLSVTIGQPASISCKSSQSLLHSDGKTYLNWLLQRPGQSPKRLIYLVSKLDSGVPDRFTGSGSGTDFTLKVSRVEAEDLGVYYCWQGAHFPYTFGGGTKLEIKVDTVAAPSVFIFPPSDEQLKSGTASVVCLLNNFYPREAKVQWKVDNALQSGNSQESVTEQDSKDSTYSLSSTLTLSKADYEKHKVYACEVTHQGLSSPVTKSFNRGEC
notes: also called 融合双特异性抗体cG7-sTGFBR2
